Data: publication PMC5552742, “Kinetic and Structural Characterization of the Effects of Membrane on the Complex of Cytochrome b5 and Cytochrome c” (Scientific Reports, 2017)

Columns and labels:
Conditions in all cases: both partners purified
[1] = target: T1, full-length rabbit cytochrome b5 (rabbit, UniProt P00169 1-134); experiment: stopped-flow absorbance kinetics; cytb5 in DMPC/DHPC bicelles; 25 °C, anaerobic; pre-reduced cytb5 mixed with ferric cyt c, final 6 uM cytb5 and 6.6 uM cyt c; micro-rates from numerical fit of the scheme binding (k1, k2) then electron transfer (k3)
T1 construct: Uniformly 15N-labelled where it is the observed protein in NMR, unlabelled otherwise; Ferric in NMR; reduced with dithionite (ferrous) for stopped flow; also called cytb 5; cytb5; source: E. coli C41, pLW01 plasmid, purified
T1 sequence (P00169 whole entry): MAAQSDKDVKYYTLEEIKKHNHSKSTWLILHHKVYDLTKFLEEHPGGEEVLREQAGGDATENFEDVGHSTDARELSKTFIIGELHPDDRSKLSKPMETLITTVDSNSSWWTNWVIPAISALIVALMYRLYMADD

[2] = target: T1, full-length rabbit cytochrome b5; experiment: stopped-flow absorbance kinetics; cytb5 in nanodiscs; 25 °C, anaerobic; pre-reduced cytb5 mixed with ferric cyt c, final 6 uM cytb5 and 6.6 uM cyt c; micro-rates from numerical fit of the scheme binding (k1, k2) then electron transfer (k3)
[3] = target: T1, full-length rabbit cytochrome b5; experiment: stopped-flow absorbance kinetics; lipid-free cytb5; 25 °C, anaerobic; pre-reduced cytb5 mixed with ferric cyt c, final 6 uM cytb5 and 6.6 uM cyt c; micro-rates from numerical fit of the scheme binding (k1, k2) then electron transfer (k3); k2 fixed to zero

koff [1]: 46.2 ± 0.86 s⁻¹
koff [2]: 54.54 ± 0.35 s⁻¹
koff [3]: ~0 s⁻¹
B1: equine cytochrome c (natural protein)
chain: not shown
notes: Unlabelled in the titrations into 15N-cytb5, in SEC/DLS and in stopped flow (ferric); uniformly 15N-labelled where it is the observed protein in NMR; also called cyt c; horse cyt c; source: obtained through a collaborator, prepared and purified as described previously; 15N-labeled form expressed and purified as reported in the literature
